What was measured:
Assay in all cases: SPR
Activin = Activin (UniProt P08476)
BMP-7 = BMP-7 (UniProt P18075)
GDF-5 = GDF-5 (UniProt P43026)
Sequence of GDF-5 (P43026 382-501): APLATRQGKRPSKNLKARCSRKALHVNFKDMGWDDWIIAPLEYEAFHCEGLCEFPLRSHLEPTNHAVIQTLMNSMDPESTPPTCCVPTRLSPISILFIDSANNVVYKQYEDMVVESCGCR

Sequence of BMP-7 (P18075 293-431): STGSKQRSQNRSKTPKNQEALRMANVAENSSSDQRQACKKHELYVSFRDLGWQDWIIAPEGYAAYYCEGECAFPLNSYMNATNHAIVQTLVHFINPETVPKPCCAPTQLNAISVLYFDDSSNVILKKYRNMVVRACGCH

| Kd (Activin) [µM] | Kd (BMP-7) [µM] | Kd (GDF-5) [µM] | Substance |
| --- | --- | --- | --- |
| > 1300 | 30 | > 1300 | AΔA: ActR-IIB ECD with its A-loop deleted (domain or fragment) |
| 94 | 27 | > 1300 | BΔB: BMPR-II ECD with its A-loop deleted (from UniProt Q13873 26-150) (domain or fragment) |
|  | 16 | > 1300 | human recombinant ActR-IIB ECD, wild type (from UniProt Q13705 19-134) (domain or fragment) |

Source: PMC3481545
